Reference: the Immune Epitope Database (IEDB)
One block for each sequence: values may come before it.

Legend:
[1] = target: HLA-A*02:01; test: IEDB peptide-MHC binding, purified MHC/direct/fluorescence; filed as Kd, often an IC50 or EC50 that approximates it; ≥ and ≤ were set here for values at or beyond the usual limits of such assays
[2] = target: HLA-A*69:01; test: as above
[3] = target: HLA-A*01:01; test: IEDB peptide-MHC binding, purified MHC/competitive/radioactivity; filed as Kd, often an IC50 or EC50 that approximates it; ≥ and ≤ were set here for values at or beyond the usual limits of such assays
[4] = target: HLA-A*23:01; test: as above
[5] = target: HLA-A*24:02; test: as above
[6] = target: HLA-A*26:01; test: as above
[7] = target: HLA-A*29:02; test: as above
[8] = target: HLA-A*30:02; test: as above
[9] = target: HLA-A*02:01; test: IEDB peptide-MHC binding, purified MHC/competitive/fluorescence; ≥ and ≤ were set here for values at or beyond the usual limits of such assays
[10] = target: HLA-A*02:01; test: IEDB peptide-MHC binding, purified MHC/competitive/fluorescence; filed as Kd, often an IC50 or EC50 that approximates it; ≥ and ≤ were set here for values at or beyond the usual limits of such assays
[11] = source organism: Pseudomonas aeruginosa
[12] = source organism: SARS coronavirus Tor2
[13] = source organism: Mammarenavirus lassaense
[14] = source organism: Dengue virus 2 Jamaica/1409/1983
[15] = source organism: Salmonella enterica subsp. enterica serovar Typhimurium
[16] = source organism: Dengue virus 4 Philippines/H241/1956
[17] = source organism: Mycobacterium tuberculosis
[18] = source organism: Lymphocytic choriomeningitis virus (strain Armstrong)
[19] = source organism: Dengue virus 1 Brazil/97-11/1997
[20] = source organism: Zaire ebolavirus
[21] = source organism: Dengue virus 4 Dominica/814669/1981
[22] = source organism: Mammarenavirus machupoense
[23] = source organism: Giardia lamblia ATCC 50803
[24] = source organism: Mammarenavirus mopeiaense
[25] = source organism: Mammarenavirus guanaritoense

Kd [1, 11]: 290 nM
Kd [2, 11]: 2700 nM
Sequence: ACMDGFEVV

Sequence: ADAGFMKQY
Kd [3, 12]: ≥ 87700 nM
Kd [4, 12]: ≥ 77800 nM
Kd [5, 12]: ≥ 77600 nM
Kd [6, 12]: ≥ 81500 nM
Kd [7, 12]: 15300 nM
Kd [8, 12]: ≥ 46200 nM

Sequence: AGFAAGLTY
Kd [3, 13]: ≥ 38500 nM
Kd [4, 13]: ≥ 39200 nM
Kd [5, 13]: ≥ 77500 nM
Kd [6, 13]: ≥ 61800 nM
Kd [7, 13]: 6130 nM
Kd [8, 13]: 178 nM

Sequence: AGPISQHNY
Kd ([8]; source organism: Dengue virus 3 Sri Lanka/1266/2000): ≥ 76900 nM

Sequence: AILGDTAWDF
Kd [4, 14]: 3710 nM

IC50 ([9]; source organism: Homo sapiens): 52 nM
Sequence: ALAPAPAEV

Sequence: ALSMADIFI
Kd [1, 15]: 106 nM
Kd [2, 15]: 1080 nM

Kd ([10]; source organism: Escherichia coli E22): 157 nM
Sequence: ALSPPLLLL

Sequence: AMISLAKKI
Kd ([10]; source organism: Vaccinia virus WR 65-16): 903 nM

Sequence: ASEAVNDSRF
Kd [3, 16]: ≥ 31400 nM

Sequence: AVGIGLRLV
Kd [1, 17]: 128 nM
Kd [2, 17]: ≥ 20000 nM

Sequence: AWLVHRQWFL
Kd [4, 14]: 97.7 nM

Sequence: CFANKHAGF
Kd [3, 12]: ≥ 78100 nM
Kd [4, 12]: 105 nM
Kd [5, 12]: 27.4 nM
Kd [6, 12]: 11800 nM
Kd [7, 12]: 28.8 nM
Kd [8, 12]: 6620 nM

Sequence: CMLDGGNML
Kd [2, 13]: ≥ 20000 nM
Kd ([10]; source organism: Lassa virus Josiah): 2.97 nM

Sequence: CWCNSTSTW
Kd [4, 14]: 998 nM
Kd [5, 14]: 1250 nM

Sequence: CYSSVNDRLV
Kd [3, 18]: 11100 nM
Kd [4, 18]: 1870 nM
Kd [5, 18]: 1130 nM
Kd [6, 18]: ≥ 69700 nM
Kd [7, 18]: 13000 nM
Kd [8, 18]: 3960 nM

Sequence: DNPYKTWAY
Kd [6, 19]: 6390 nM

Sequence: DVIPMVTQM
Kd ([6]; source organism: Dengue virus 2 Peru/IQT2913/1996): 64.2 nM

Sequence: DWIPLALTI
Kd [5, 14]: 16 nM

Sequence: EDLIEWAME
IC50 ([9]; source organism: Vaccinia virus): ≥ 94700 nM

Sequence: EFLTRNPAW
Kd [3, 12]: ≥ 78100 nM
Kd [4, 12]: ≥ 84500 nM
Kd [5, 12]: ≥ 84500 nM
Kd [6, 12]: ≥ 69000 nM
Kd [7, 12]: ≥ 45200 nM
Kd [8, 12]: ≥ 100000 nM

Sequence: ENPYKTWAYH
Kd ([6]; source organism: Dengue virus 3 Martinique/1243/1999): ≥ 34100 nM

Sequence: EQYQQLREA
IC50 [9, 20]: ≥ 221000 nM

Sequence: ESQMLIPKSY
Kd [3, 21]: 8370 nM
Kd [8, 21]: 1210 nM

Sequence: EVKQDEDGSF
Kd [6, 16]: 69.2 nM

Sequence: EYFMCFKYLL
Kd [4, 22]: 9.3 nM
Kd [5, 22]: 192 nM
Kd [7, 22]: 49 nM

Sequence: FAHELEMLC
Kd [1, 15]: 1170 nM
Kd [2, 15]: 720 nM

Kd ([10]; source organism: unidentified): 10 nM
Sequence: FLHEDLEKL

Sequence: FMYEDALKS
Kd [1, 23]: 43.5 nM
Kd [2, 23]: 1360 nM

Sequence: GTDLEGKFY
Kd [3, 12]: 33.4 nM
Kd [4, 12]: ≥ 77800 nM
Kd [5, 12]: ≥ 77600 nM
Kd [6, 12]: ≥ 38800 nM
Kd [7, 12]: 273 nM
Kd [8, 12]: 1390 nM

Sequence: GTTVVKVKY
Kd [8, 16]: 244 nM

Sequence: GVIHNSTLQ
IC50 [9, 20]: ≥ 121000 nM

Sequence: GYATQTVGPW
Kd [4, 16]: 549 nM
Kd [5, 16]: 1290 nM

Sequence: GYTMHANYI
Kd [3, 12]: ≥ 78100 nM
Kd [4, 12]: 6960 nM
Kd [5, 12]: 13500 nM
Kd [6, 12]: ≥ 77900 nM
Kd [7, 12]: ≥ 88200 nM
Kd [8, 12]: ≥ 78900 nM

Sequence: GYVTHGFNL
Kd [3, 12]: ≥ 78100 nM
Kd [4, 12]: 234 nM
Kd [5, 12]: 1210 nM
Kd [6, 12]: ≥ 77900 nM
Kd [7, 12]: 839 nM
Kd [8, 12]: ≥ 78900 nM

Sequence: GYVVSNFEGV
Kd [3, 22]: ≥ 70400 nM
Kd [4, 22]: ≥ 70000 nM
Kd [5, 22]: ≥ 70300 nM
Kd [6, 22]: ≥ 69700 nM
Kd [7, 22]: ≥ 70800 nM
Kd [8, 22]: ≥ 69700 nM

Sequence: HFAIGLALY
Kd [3, 12]: ≥ 119000 nM
Kd [4, 12]: 11500 nM
Kd [5, 12]: 11100 nM
Kd [6, 12]: 240 nM
Kd [7, 12]: 4.71 nM
Kd [8, 12]: 13.2 nM

Sequence: HHQDTGEES
IC50 [9, 20]: ≥ 223000 nM

Sequence: IGNENYLDY
Kd [8, 19]: 956 nM

Sequence: IKIPTHRHI
Kd [3, 24]: 16600 nM
Kd [4, 24]: ≥ 24800 nM
Kd [5, 24]: ≥ 57100 nM
Kd [6, 24]: ≥ 77900 nM
Kd [7, 24]: ≥ 78900 nM
Kd [8, 24]: ≥ 76900 nM

Sequence: ILDNQGRVV
Kd ([1]; source organism: Venezuelan equine encephalitis virus): 1210 nM

Sequence: ILFPDDVQEL
Kd ([10]; source organism: Vaccinia virus WR): 1.1 nM

Sequence: IRHLFGNYI
Kd [3, 25]: ≥ 22200 nM
Kd [4, 25]: ≥ 22100 nM
Kd [5, 25]: ≥ 43700 nM
Kd [6, 25]: ≥ 77900 nM
Kd [7, 25]: 571 nM
Kd [8, 25]: ≥ 24100 nM

Kd ([5]; source organism: Homo sapiens): 39 nM
Sequence: IYKAPSENW

Sequence: KAALSEGVY
Kd [8, 21]: 15 nM

IC50 ([9]; source organism: Porphyromonas gingivalis): 120 nM
Sequence: KLAGGVAVL

Sequence: KLTDSLSSQ
IC50 ([9]; source organism: Vaccinia virus Copenhagen): 44600 nM
